Measurements published in the supplement of paper PMC10126150.
± gives the standard deviation of the averaged measurements.

Test system: ATP
Assay: switch fluorescence ratio, 500 uM ATP over buffer (Cy3 cluster intensity, sum of 5 cycles each) (fold (ratio)); higher = stronger signal-on switching upon ATP binding; sequences stand for … in TCGTCGGCAGCGTCAGATGTGTATAAGAGACAGTTTTTTTTTTTTTTTTTTTTTTTTT…TC
Settings: aptamer strand: ATP DNA aptamer (quencher-CACCTGGGGGAGTATTGCGGAGGAAGG + anchor), 100 nM annealed; ATP concentration: 500 uM
In short: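 For every switch-domain sequence, the fluorescence ratio is the mean of per-cluster values, each being summed target-cycle Cy3 intensity over summed buffer-cycle Cy3 intensity. Clusters outside 100-1000 RFU were excluded. On a modified Illumina MiSeq flow-cell, the Cy3-labelled switching-strand clusters were annealed to 100 nM quencher-labelled ATP aptamer, imaged in selection buffer and then after 15 min with 500 uM ATP at 22 °C. Five such cycles were run, with NaOH stripping and re-annealing between them.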
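Further: ATP exposure 15 min at 22 °C before imaging.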

Sequence TTACCCGTCA has a switch fluorescence ratio of 1.06 ± 0.044.

For TTACCCTATA, the switch fluorescence ratio was 1.07 ± 0.029.

In the case of TTACCGAGGT, the switch fluorescence ratio is reported as 1.03 ± 0.031.

TTACCTGGCT was tested, and the switch fluorescence ratio was 1.1 ± 0.059.

Work on TTACGAACCG yielded a switch fluorescence ratio of 1.23 ± 0.026.

Sequence TTACGACGAC has a switch fluorescence ratio of 2.21 ± 0.096.

TTACGATGGT gave a switch fluorescence ratio of 1.003 ± 0.0032.

TTACGGCCCG gave a switch fluorescence ratio of 1.05 ± 0.051.

Sequence TTACGGGTAA has a switch fluorescence ratio of 0.99 ± 0.01.

Sequence TTACGGTAAC has a switch fluorescence ratio of 2.05 ± 1.1.

With TTACGGTATG the switch fluorescence ratio was 1.09 ± 0.035.

Sequence TTACGGTGGA has a switch fluorescence ratio of 0.9963 ± 0.0033.

Sequence TTACGTCATA has a switch fluorescence ratio of 1.67 ± 0.95.

For TTACGTGCAT, the switch fluorescence ratio was 1.01 ± 0.011.

With TTACGTTCCT the switch fluorescence ratio was 1.5 ± 0.13.

TTACGTTTGT was tested, and the switch fluorescence ratio was 1.02 ± 0.07.

Work on TTACGTTTTT yielded a switch fluorescence ratio of 0.999 ± 0.011.

Work on TTACTAAGCT yielded a switch fluorescence ratio of 1.03 ± 0.069.

In the case of TTACTAGGCC, the switch fluorescence ratio is reported as 1.01 ± 0.034.

Sequence TTACTAGTTT has a switch fluorescence ratio of 0.981 ± 0.02.

For TTACTATGGC, the switch fluorescence ratio was 0.966 ± 0.032.

For TTACTATGTT, the switch fluorescence ratio was 0.999 ± 0.018.

TTACTGATCC gave a switch fluorescence ratio of 1.04 ± 0.019.

With TTACTGCATT the switch fluorescence ratio was 1.11 ± 0.014.

TTACTGCTTT was tested, and the switch fluorescence ratio was 1.02 ± 0.025.

Sequence TTACTGGTTA has a switch fluorescence ratio of 1.01 ± 0.029.

With TTACTTACGA the switch fluorescence ratio was 1.4167 ± 0.00061.

TTACTTATAA was tested, and the switch fluorescence ratio was 1.04 ± 0.018.

For TTACTTCAGG, the switch fluorescence ratio was 1.032 ± 0.0026.

With TTACTTGCAT the switch fluorescence ratio was 1.065 ± 0.0059.

Work on TTACTTGTGG yielded a switch fluorescence ratio of 0.988 ± 0.024.

With TTACTTGTTT the switch fluorescence ratio was 1 ± 0.023.

Sequence TTACTTTCCT has a switch fluorescence ratio of 1.12 ± 0.086.

Work on TTACTTTGGC yielded a switch fluorescence ratio of 1 ± 0.022.

With TTACTTTGTT the switch fluorescence ratio was 1.02 ± 0.023.

For TTAGAACATC, the switch fluorescence ratio was 1.009 ± 0.0053.

For TTAGAAGGCA, the switch fluorescence ratio was 1.03 ± 0.036.

TTAGAAGGG showed a switch fluorescence ratio of 0.965 ± 0.012.

TTAGAAGGGG was tested, and the switch fluorescence ratio was 0.993 ± 0.015.

For TTAGAAGTCA, the switch fluorescence ratio was 1.0063 ± 0.00067.

In the case of TTAGAATTAA, the switch fluorescence ratio is reported as 0.9724 ± 0.0063.

Work on TTAGACATAT yielded a switch fluorescence ratio of 1.02 ± 0.021.

TTAGACGAGC was tested, and the switch fluorescence ratio was 0.986 ± 0.031.

TTAGAGAACC showed a switch fluorescence ratio of 1.01 ± 0.016.

TTAGAGAGTG gave a switch fluorescence ratio of 0.984 ± 0.044.

TTAGAGCGTT gave a switch fluorescence ratio of 1.72 ± 1.

TTAGAGGACG gave a switch fluorescence ratio of 1.02 ± 0.025.

TTAGAGGGTG was tested, and the switch fluorescence ratio was 1.12 ± 0.018.

With TTAGAGTTGT the switch fluorescence ratio was 0.999 ± 0.034.

In the case of TTAGAGTTTA, the switch fluorescence ratio is reported as 0.975 ± 0.014.

TTAGATAGGA showed a switch fluorescence ratio of 0.999 ± 0.01.

In the case of TTAGATCAGC, the switch fluorescence ratio is reported as 0.99 ± 0.03.

Work on TTAGATGGGA yielded a switch fluorescence ratio of 1.005 ± 0.0047.

With TTAGATTGGG the switch fluorescence ratio was 0.9736 ± 0.0075.

Work on TTAGCATTTA yielded a switch fluorescence ratio of 1.03 ± 0.013.

For TTAGCGGTCA, the switch fluorescence ratio was 1.01 ± 0.021.

TTAGCGTATG showed a switch fluorescence ratio of 1.01 ± 0.031.

TTAGCTACCT gave a switch fluorescence ratio of 1.11 ± 0.19.

TTAGCTATCT showed a switch fluorescence ratio of 1.04 ± 0.021.

Sequence TTAGCTATTA has a switch fluorescence ratio of 0.9858 ± 0.0043.

TTAGCTGTTA showed a switch fluorescence ratio of 1 ± 0.016.

Sequence TTAGCTTGG has a switch fluorescence ratio of 0.999 ± 0.061.

With TTAGGAAGAT the switch fluorescence ratio was 1.36 ± 0.59.

TTAGGAATGT was tested, and the switch fluorescence ratio was 1.03 ± 0.047.

For TTAGGACAGC, the switch fluorescence ratio was 1.02 ± 0.021.

TTAGGAGATT was tested, and the switch fluorescence ratio was 1.08 ± 0.14.

For TTAGGAGCGG, the switch fluorescence ratio was 1.04 ± 0.047.

TTAGGAGGTG was tested, and the switch fluorescence ratio was 1.08 ± 0.018.

In the case of TTAGGATGA, the switch fluorescence ratio is reported as 1.01 ± 0.027.

Work on TTAGGCAGTA yielded a switch fluorescence ratio of 1.01 ± 0.067.

TTAGGCCGAG was tested, and the switch fluorescence ratio was 1.04 ± 0.022.

With TTAGGCGTGT the switch fluorescence ratio was 1.03 ± 0.031.

For TTAGGCTGGG, the switch fluorescence ratio was 1.02 ± 0.013.

In the case of TTAGGCTTGG, the switch fluorescence ratio is reported as 1.06 ± 0.067.

Work on TTAGGGAGCG yielded a switch fluorescence ratio of 0.996 ± 0.035.

Sequence TTAGGGAGTC has a switch fluorescence ratio of 0.992 ± 0.037.

TTAGGGCCGA gave a switch fluorescence ratio of 1 ± 0.031.

In the case of TTAGGGCGGG, the switch fluorescence ratio is reported as 1.04 ± 0.039.

With TTAGGGCTCA the switch fluorescence ratio was 0.996 ± 0.027.

With TTAGGGGCAA the switch fluorescence ratio was 1.04 ± 0.073.

Work on TTAGGGGCAC yielded a switch fluorescence ratio of 0.993 ± 0.018.

In the case of TTAGGGGGTC, the switch fluorescence ratio is reported as 0.998 ± 0.036.

With TTAGGGGTCT the switch fluorescence ratio was 1.03 ± 0.019.

TTAGGGTGAA showed a switch fluorescence ratio of 1.02 ± 0.032.

With TTAGGGTGCC the switch fluorescence ratio was 1.02 ± 0.034.

For TTAGGGTTTG, the switch fluorescence ratio was 0.995 ± 0.029.

In the case of TTAGGTAACG, the switch fluorescence ratio is reported as 0.977 ± 0.027.

Work on TTAGGTACGG yielded a switch fluorescence ratio of 1.035 ± 0.01.

TTAGGTGAGT gave a switch fluorescence ratio of 1.21 ± 0.3.

In the case of TTAGGTGGAA, the switch fluorescence ratio is reported as 0.976 ± 0.012.

TTAGGTGTTT was tested, and the switch fluorescence ratio was 1.54 ± 0.69.

TTAGGTTCTC was tested, and the switch fluorescence ratio was 0.991 ± 0.015.

TTAGGTTGCT was tested, and the switch fluorescence ratio was 1.1 ± 0.14.

In the case of TTAGGTTGGC, the switch fluorescence ratio is reported as 1 ± 0.069.

Sequence TTAGGTTGGG has a switch fluorescence ratio of 1.02 ± 0.056.

TTAGGTTGTA gave a switch fluorescence ratio of 0.974 ± 0.025.

TTAGTAGAAC was tested, and the switch fluorescence ratio was 0.993 ± 0.013.

Work on TTAGTATATT yielded a switch fluorescence ratio of 1.03 ± 0.0093.

TTAGTCCACT was tested, and the switch fluorescence ratio was 1.0047 ± 0.001.

Work on TTAGTCCTTG yielded a switch fluorescence ratio of 0.9914 ± 0.0024.

TTAGTGAGGT gave a switch fluorescence ratio of 1 ± 0.027.

TTAGTGGATT gave a switch fluorescence ratio of 0.9958 ± 0.0073.

With TTAGTGGGGG the switch fluorescence ratio was 0.998 ± 0.029.

TTAGTGGTTG showed a switch fluorescence ratio of 0.992 ± 0.014.

With TTAGTGTCGA the switch fluorescence ratio was 1.02 ± 0.04.

Sequence TTAGTGTGCT has a switch fluorescence ratio of 1 ± 0.026.

For TTAGTGTTGT, the switch fluorescence ratio was 0.969 ± 0.028.

TTAGTTAAT was tested, and the switch fluorescence ratio was 1.02 ± 0.023.

Sequence TTAGTTAGGT has a switch fluorescence ratio of 1.004 ± 0.0046.

Sequence TTAGTTATTG has a switch fluorescence ratio of 1 ± 0.087.

TTAGTTCGGG was tested, and the switch fluorescence ratio was 0.965 ± 0.023.

TTAGTTGATA gave a switch fluorescence ratio of 1.01 ± 0.018.

TTAGTTGCTT showed a switch fluorescence ratio of 1.01 ± 0.03.

In the case of TTAGTTGGCA, the switch fluorescence ratio is reported as 0.981 ± 0.016.

Sequence TTAGTTGGGT has a switch fluorescence ratio of 1.002 ± 0.008.

TTAGTTTGTC showed a switch fluorescence ratio of 0.986 ± 0.063.

Sequence TTAGTTTTAG has a switch fluorescence ratio of 1.008 ± 0.0056.

TTAGTTTTGA showed a switch fluorescence ratio of 1 ± 0.031.

TTAGTTTTTG was tested, and the switch fluorescence ratio was 0.98 ± 0.017.

With TTATAAAGAG the switch fluorescence ratio was 1.01 ± 0.029.

In the case of TTATAACTCA, the switch fluorescence ratio is reported as 0.997 ± 0.034.

TTATACCAAT gave a switch fluorescence ratio of 1.013 ± 0.0022.

TTATACGGCG showed a switch fluorescence ratio of 1.06 ± 0.0059.

TTATACGTTG showed a switch fluorescence ratio of 1.02 ± 0.019.

Sequence TTATACTGAA has a switch fluorescence ratio of 1.05 ± 0.021.

Sequence TTATAGAGTT has a switch fluorescence ratio of 0.9649 ± 0.0032.

Work on TTATAGCAGT yielded a switch fluorescence ratio of 1.06 ± 0.04.

TTATAGGGGA was tested, and the switch fluorescence ratio was 0.998 ± 0.082.

In the case of TTATAGGGTA, the switch fluorescence ratio is reported as 1 ± 0.017.

With TTATAGTATC the switch fluorescence ratio was 0.948 ± 0.02.

TTATAGTTTG showed a switch fluorescence ratio of 0.997 ± 0.03.

TTATATATAA gave a switch fluorescence ratio of 1.01 ± 0.027.

In the case of TTATATCGGT, the switch fluorescence ratio is reported as 0.971 ± 0.011.

For TTATATGATT, the switch fluorescence ratio was 0.997 ± 0.036.

Sequence TTATATTGCG has a switch fluorescence ratio of 0.9885 ± 0.0014.

Sequence TTATATTTGT has a switch fluorescence ratio of 0.98 ± 0.02.

TTATCAGGGG showed a switch fluorescence ratio of 1.08 ± 0.12.

For TTATCATTC, the switch fluorescence ratio was 1.01 ± 0.019.

Sequence TTATCCAGCT has a switch fluorescence ratio of 1.01 ± 0.012.

With TTATCCCGAA the switch fluorescence ratio was 0.991 ± 0.0085.

For TTATCCTGGT, the switch fluorescence ratio was 0.975 ± 0.011.

TTATCCTTCA showed a switch fluorescence ratio of 1.27 ± 0.36.

TTATCGAGGG was tested, and the switch fluorescence ratio was 0.989 ± 0.03.

TTATCGATAG gave a switch fluorescence ratio of 0.985 ± 0.019.

Sequence TTATCGATGG has a switch fluorescence ratio of 0.987 ± 0.022.

Sequence TTATCGATTT has a switch fluorescence ratio of 0.995 ± 0.028.

With TTATCGCGAC the switch fluorescence ratio was 1.67 ± 0.82.

For TTATCGGGAC, the switch fluorescence ratio was 1 ± 0.049.

Sequence TTATCGGTGT has a switch fluorescence ratio of 0.968 ± 0.038.

Sequence TTATCGTGCG has a switch fluorescence ratio of 0.9661 ± 0.0079.

Sequence TTATCGTTGG has a switch fluorescence ratio of 1 ± 0.031.

For TTATCTACGT, the switch fluorescence ratio was 1.07 ± 0.035.

With TTATCTCTGT the switch fluorescence ratio was 0.999 ± 0.022.
